The chains are these.
B1: GST-fused lamin 250 to 400 fragment (human lamin A/C residues 250-400) (domain or fragment, UniProt P02545 250-400, looked up)
chain: AQHEDQVEQYKKELEKTYSAKLDNARQSAERNSNLVGAAHEELQQSRIRIDSLSAQLSQLQKQLAAKEAKLRDLEDSLARERDTSRRLLAEKEREMAEMRARMQQQLDEYQELLDIKLALDMEIHAYRKLLEGEEERLRLSPSPTSQRSRG
notes: human lamin A/C, residues 250-400: most of coil 2 (242-385) and a C-terminal flanking region (386-400); also called GST-lamin coil 250-400; lamin C-terminal 250 to 400 fragment; source: E. coli, purified (glutathione-agarose, HiTrap Q, desalting); not shown: GST, N-terminal, kept

The target in data set [1] is lamin A/C 250-400 (UniProt P02545). Briefly: GST pull-down, SDS-PAGE. The settings on record: reference: wild type, CDK1 treated.
Data set [2] has as its target T1, WT lamin 1 to 300 fragment (lamin A/C residues 1-300) (human, UniProt P02545 1-300).
T1 construct: lamin A/C, residues 1-300 (head region 1-27 and part of the central rod domain); The abstract says purified proteins were used; also called lamin 1-300; lamin N-terminal 1 to 300 fragment
T1 sequence (looked up): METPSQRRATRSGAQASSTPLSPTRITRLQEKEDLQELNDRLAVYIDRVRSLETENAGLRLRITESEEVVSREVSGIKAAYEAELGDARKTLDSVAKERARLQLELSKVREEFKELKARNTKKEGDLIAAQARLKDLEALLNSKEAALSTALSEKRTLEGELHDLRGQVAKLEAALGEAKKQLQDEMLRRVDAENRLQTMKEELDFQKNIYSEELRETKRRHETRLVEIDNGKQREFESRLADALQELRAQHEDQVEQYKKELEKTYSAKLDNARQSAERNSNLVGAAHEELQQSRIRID
Briefly: pull-down; GST-fused coil 2C fragment (5 μM) on GSH-agarose resin with lamin N-terminal fragments (20 μM); 20 mM Tris-HCl pH 7.5, 50 mM NaCl, 1 h at room temperature; eluted with 20 mM GSH; SDS-PAGE or Phos-tag SDS-PAGE. The settings on record: both partners purified.

Data set [3] has as its target T2, L59R mutant lamin 1 to 300 fragment (human, UniProt P02545 1-300, L59R).
T2 construct: lamin A/C, residues 1-300, with the genetic (laminopathy) mutation L59R; also called L59R-harboring lamin 1 to 300; L59R lamin 1 to 300
T2 sequence (looked up): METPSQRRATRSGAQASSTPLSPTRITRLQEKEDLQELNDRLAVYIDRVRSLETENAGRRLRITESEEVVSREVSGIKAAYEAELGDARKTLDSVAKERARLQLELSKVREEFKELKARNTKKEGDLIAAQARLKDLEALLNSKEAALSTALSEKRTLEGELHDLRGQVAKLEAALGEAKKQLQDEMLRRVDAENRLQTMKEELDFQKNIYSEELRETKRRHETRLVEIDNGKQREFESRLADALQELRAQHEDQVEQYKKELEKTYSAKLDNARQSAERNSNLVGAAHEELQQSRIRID
The description is as above. The settings on record: both partners purified.

Data set [4] concerns the target B1. The description is as above. The settings on record: both partners purified.
Data set [5] concerns the molecule itself. Briefly: cross-linking; disulfide bond between Cys146 of two coiled-coil dimers as read-out of the A11 tetramer; Phos-tag SDS-PAGE with nonreducing loading dye.

The values below come from PMC9400090, “Cyclin-dependent kinase 1 depolymerizes nuclear lamin filaments by disrupting the head-to-tail interaction of the lamin central rod domain” (The Journal of Biological Chemistry, 2022).

“lamin A/C 1-125 (from UniProt P02545) T19A, CDK1 treated”: the “binding against the reference” value in data set [1] (sites T19) is listed as “stronger”.
For “lamin A/C 1-125 (from UniProt P02545) S22A, CDK1 treated”, the “binding against the reference” value in data set [1] (sites S22) is “stronger”.
For the molecule B1, the binding result in data set [2] and in data set [3] was “binds” in each case.

B2: WT lamin 1 to 125 fragment (human lamin A/C, residues 1-125) (domain or fragment, UniProt P02545 1-125, looked up)
chain: METPSQRRATRSGAQASSTPLSPTRITRLQEKEDLQELNDRLAVYIDRVRSLETENAGLRLRITESEEVVSREVSGIKAAYEAELGDARKTLDSVAKERARLQLELSKVREEFKELKARNTKKEG
As for B2, the binding result in data set [4] is “binds”.

B3: lamin 1 to 125 fragment T19A (domain or fragment, human, UniProt P02545 1-125, looked up)
chain: METPSQRRATRSGAQASSAPLSPTRITRLQEKEDLQELNDRLAVYIDRVRSLETENAGLRLRITESEEVVSREVSGIKAAYEAELGDARKTLDSVAKERARLQLELSKVREEFKELKARNTKKEG
B3: in data set [4], the binding result is on record as “binds”.

B4: lamin 1 to 125 fragment T19D/S22D (domain or fragment, human, UniProt P02545 1-125, looked up)
chain: METPSQRRATRSGAQASSDPLDPTRITRLQEKEDLQELNDRLAVYIDRVRSLETENAGLRLRITESEEVVSREVSGIKAAYEAELGDARKTLDSVAKERARLQLELSKVREEFKELKARNTKKEG
notes: also called phosphorylation-mimicking dual mutant
As to B4, the binding result in data set [4] is “binds”.

B5: lamin 1 to 125 fragment S22A (domain or fragment, human, UniProt P02545 1-125, looked up)
chain: METPSQRRATRSGAQASSTPLAPTRITRLQEKEDLQELNDRLAVYIDRVRSLETENAGLRLRITESEEVVSREVSGIKAAYEAELGDARKTLDSVAKERARLQLELSKVREEFKELKARNTKKEG
B5: the binding result in data set [4] was “binds”.

B6: lamin 1 to 125 fragment T19A/S22A (domain or fragment, human, UniProt P02545 1-125, looked up)
chain: METPSQRRATRSGAQASSAPLAPTRITRLQEKEDLQELNDRLAVYIDRVRSLETENAGLRLRITESEEVVSREVSGIKAAYEAELGDARKTLDSVAKERARLQLELSKVREEFKELKARNTKKEG
notes: also called double mutant
Regarding B6, in data set [4], the binding result is “binds”.

B7: A146C mutant lamin 1 to 300 fragment (domain or fragment, human, UniProt P02545 1-300, looked up)
chain: METPSQRRATRSGAQASSTPLSPTRITRLQEKEDLQELNDRLAVYIDRVRSLETENAGLRLRITESEEVVSREVSGIKAAYEAELGDARKTLDSVAKERARLQLELSKVREEFKELKARNTKKEGDLIAAQARLKDLEALLNSKECALSTALSEKRTLEGELHDLRGQVAKLEAALGEAKKQLQDEMLRRVDAENRLQTMKEELDFQKNIYSEELRETKRRHETRLVEIDNGKQREFESRLADALQELRAQHEDQVEQYKKELEKTYSAKLDNARQSAERNSNLVGAAHEELQQSRIRID
notes: lamin A/C, residues 1-300; Cys146 forms a disulfide between two coiled-coil dimers within the A11 tetramer; also called lamin 1 to 300 (A146C)
As to B7, the binding result in data set [5] was “binds”.
